Laboratory results as given in patent US12685781B2, “Anti-HER3 antibody-drug conjugate” (DAIICHI SANKYO COMPANY, LIMITED, priority 2014, dated 2026).

Target: HER3 (Homo sapiens, UniProt P21860)
Assay: Reduction in expression of HER3 on cell surface (internalization), flow cytometry in HCC1569
Format: cell-based
Set-up: host or cells: HCC1569 (human breast cancer cell line)
Settings: HCC1569, 10 ug/mL, 37 C, 1 hr
Method: HER3 internalization by U1-59 and each antibody-drug conjugate was evaluated by flow cytometry. 70,000 living cells of HCC1569 (from ATCC) were suspended in 0.5 mL of RPMI1640 (Invitrogen Corp., #31870-025) (containing 10% FBS (Invitrogen Corp., #10270-106 or PAN Biotech GmbH, #1505-P131304) and 2 mM glutamine (Invitrogen Corp., #25030-024)) and inoculated to each well of a 24-well plate. The cells were cultured for 4 days, and the medium was replaced with 0.5 mL of a fresh medium before the start of the internalization test. 5 ug of the antibody or each antibody-drug conjugate was added to 0.5 mL in each well of the 24-well plate such that the final concentration was 10 ug/mL. The cells were cultured for 1 hour at 37 C in the presence of the antibody or the antibody-drug conjugate. […]
For flow cytometry analysis, the cells were washed once with PBS and dissociated from the plate using 5 mM EDTA (100 uL/well) dissolved in ACCUTASE® SOLUTION (Millipore Corp., SCR005) or PBS. […] The fluorescence signals of living cells were measured using Accuri C6 Flow cytometer. […]
In order to quantify HER3-specific signals, values of cells stained with only the secondary antibody or 7-AAD were subtracted from FL-2 values of cells stained with the primary antibody and the secondary antibody, and further 7-AAD. […]

reduction in HER3 expression on cell surface: about 50%
Substance: U1-59: anti-HER3 human antibody; heavy and light chain variable regions SEQ ID NOs: 70 and 72; produced per WO 2007/077028
